The Immune Epitope Database (IEDB)
Each block holds one sequence with its values, some of them ahead of it.

Experiments:
[1] = target: HLA-B*27:05; test: IEDB peptide-MHC binding, purified MHC/competitive/fluorescence; filed as Kd, often an IC50 or EC50 that approximates it; ≥ and ≤ were set here for values at or beyond the usual limits of such assays; details: source organism: Influenza A virus (A/Waikato/7/2000(H3N2))
[2] = target: HLA-C*06:02; test: IEDB peptide-MHC binding, purified MHC/direct/fluorescence; filed as Kd, often an IC50 or EC50 that approximates it; ≥ and ≤ were set here for values at or beyond the usual limits of such assays
[3] = target: HLA-A*24:02; test: IEDB peptide-MHC binding, purified MHC/competitive/fluorescence; filed as Kd, often an IC50 or EC50 that approximates it; ≥ and ≤ were set here for values at or beyond the usual limits of such assays; details: source organism: Campylobacter jejuni
[4] = target: HLA-C*04:01; test: IEDB peptide-MHC binding, purified MHC/direct/fluorescence; filed as Kd, often an IC50 or EC50 that approximates it; ≥ and ≤ were set here for values at or beyond the usual limits of such assays
[5] = target: HLA-C*07:02; test: as above; details: source organism: Campylobacter jejuni
[6] = target: HLA-A*24:03; test: as above; details: source organism: Mammarenavirus lassaense
[7] = target: HLA-B*35:01; test: IEDB peptide-MHC binding, cellular MHC/competitive/fluorescence; ≥ and ≤ were set here for values at or beyond the usual limits of such assays; details: source organism: Mycobacterium tuberculosis H37Rv
[8] = target: HLA-B*15:42; test: IEDB peptide-MHC binding, purified MHC/competitive/fluorescence; filed as Kd, often an IC50 or EC50 that approximates it; ≥ and ≤ were set here for values at or beyond the usual limits of such assays
[9] = target: HLA-B*15:01; test: as above; details: source organism: Mycobacterium tuberculosis variant bovis BCG str. Pasteur 1173P2
[10] = target: HLA-B*45:06; test: as above
[11] = target: HLA-B*83:01; test: as above
[12] = target: HLA-B*08:01; test: IEDB peptide-MHC binding, purified MHC/direct/fluorescence; filed as Kd, often an IC50 or EC50 that approximates it; ≥ and ≤ were set here for values at or beyond the usual limits of such assays
[13] = target: HLA-A*26:01; test: as above
[14] = target: HLA-B*27:05; test: as above
[15] = target: HLA-B*46:01; test: as above; details: source organism: Mycobacterium tuberculosis
[16] = target: HLA-B*18:01; test: as above; details: source organism: Mycobacterium tuberculosis
[17] = target: HLA-B*39:01; test: as above; details: source organism: Mycobacterium tuberculosis str. Haarlem
[18] = target: HLA-B*08:02; test: as above; details: source organism: Mycobacterium tuberculosis str. Haarlem
[19] = target: HLA-A*02:01; test: as above
[20] = target: HLA-B*40:01; test: as above
[21] = target: HLA-B*57:01; test: as above; details: source organism: Mycobacterium tuberculosis
[22] = target: HLA-B*51:01; test: as above; details: source organism: Mycobacterium tuberculosis
[23] = target: HLA-B*48:01; test: as above; details: source organism: Mycobacterium tuberculosis
[24] = target: HLA-B*38:01; test: as above; details: source organism: Mycobacterium tuberculosis str. Haarlem
[25] = target: HLA-A*69:01; test: as above
[26] = target: HLA-B*15:17; test: as above; details: source organism: Mycobacterium tuberculosis
[27] = target: HLA-A*11:01; test: as above; details: source organism: Mycobacterium tuberculosis
[28] = target: HLA-A*31:01; test: as above
[29] = target: HLA-A*03:01; test: as above; details: source organism: Mycobacterium tuberculosis
[30] = target: HLA-B*15:09; test: as above; details: source organism: Mycobacterium tuberculosis str. Haarlem
[31] = target: HLA-B*58:01; test: as above
[32] = target: HLA-A*01:01; test: as above
[33] = target: HLA-A*02:01; test: IEDB peptide-MHC binding, cellular MHC/competitive/fluorescence; ≥ and ≤ were set here for values at or beyond the usual limits of such assays; details: source organism: Mycobacterium tuberculosis
[34] = target: HLA-B*73:01; test: IEDB peptide-MHC binding, purified MHC/competitive/fluorescence; filed as Kd, often an IC50 or EC50 that approximates it; ≥ and ≤ were set here for values at or beyond the usual limits of such assays
[35] = target: HLA-A*32:15; test: as above; details: source organism: Shewanella sp. W3-18-1
[36] = target: HLA-A*32:07; test: as above; details: source organism: Shewanella sp. W3-18-1
[37] = target: HLA-C*05:01; test: IEDB peptide-MHC binding, purified MHC/direct/fluorescence; filed as Kd, often an IC50 or EC50 that approximates it; ≥ and ≤ were set here for values at or beyond the usual limits of such assays; details: source organism: Shewanella sp. W3-18-1
[38] = target: HLA-B*15:01; test: as above; details: source organism: Stutzerimonas stutzeri
[39] = target: HLA-A*30:01; test: as above; details: source organism: Stutzerimonas stutzeri
[40] = target: HLA-B*07:02; test: as above; details: source organism: Stutzerimonas stutzeri
[41] = target: HLA-C*04:01; test: IEDB peptide-MHC binding, purified MHC/competitive/fluorescence; filed as Kd, often an IC50 or EC50 that approximates it; ≥ and ≤ were set here for values at or beyond the usual limits of such assays; details: source organism: Salmonella enterica subsp. enterica serovar Typhi
[42] = target: HLA-B*40:01; test: as above; details: source organism: Salmonella enterica subsp. enterica serovar Typhi
[43] = source organism: Mycobacterium tuberculosis variant bovis BCG str. Pasteur 1173P2
[44] = source organism: Mycobacterium tuberculosis str. Haarlem
[45] = source organism: Mycobacterium tuberculosis
[46] = source organism: Shewanella sp. W3-18-1
[47] = source organism: Salmonella enterica subsp. enterica serovar Typhimurium
[48] = source organism: Stutzerimonas stutzeri
[49] = source organism: Salmonella enterica subsp. enterica serovar Typhi

Sequence: YRTLLMNEL
Kd [1]: 0.0539 µM
Kd ([2]; source organism: Influenza A virus (A/Waikato/7/2000(H3N2))): 0.009 µM

Sequence: LYSRSFWFF
Kd [3]: ≤ 0.0001 µM
Kd ([4]; source organism: Campylobacter jejuni): ≥ 20 µM
Kd [5]: 0.206 µM

Sequence: FYADPKRYF
Kd ([4]; source organism: Mammarenavirus lassaense): ≥ 20 µM
Kd [6]: 0.008 µM

Sequence: IPAEFLENF
IC50 [7]: 1 µM

Sequence: RPRRASSPF
Kd [8, 43]: ≥ 5 µM
Kd [9]: 0.288 µM
Kd [10, 43]: ≥ 5 µM
Kd [11, 43]: 0.109 µM
Kd [12, 44]: 0.036 µM
Kd [13, 44]: ≥ 20 µM
Kd [14, 45]: ≥ 20 µM
Kd [15]: ≥ 20 µM
Kd [16]: 9.95 µM
Kd [17]: ≥ 20 µM
Kd [18]: 9.48 µM
Kd [19, 45]: ≥ 20 µM
Kd [20, 45]: ≥ 20 µM
Kd [21]: ≥ 20 µM
Kd [22]: ≥ 20 µM
Kd [23]: ≥ 20 µM
Kd [24]: ≥ 20 µM
Kd [25, 45]: ≥ 20 µM
Kd [26]: 0.273 µM
Kd [27]: ≥ 20 µM
Kd [28, 45]: ≥ 20 µM
Kd [29]: ≥ 20 µM
Kd [30]: ≥ 20 µM
Kd [31, 45]: ≥ 20 µM
Kd [32, 45]: ≥ 20 µM

Sequence: NLLVTGFDT
IC50 [33]: 2.4 µM

Sequence: SRFLRRPAQ
Kd ([34]; source organism: Burkholderia vietnamiensis G4): 0.67 µM

Sequence: IPAKFLEGL
IC50 [7]: 7.1 µM

Sequence: LMMSSPPPI
Kd [35]: 0.137 µM
Kd [8, 46]: ≥ 5 µM
Kd [10, 46]: ≥ 5 µM
Kd [36]: 0.0508 µM
Kd [11, 46]: ≥ 5 µM
Kd [37]: ≥ 20 µM
Kd [19, 47]: 0.0123 µM
Kd [25, 47]: 0.174 µM

Sequence: TIPEALAAV
IC50 [33]: 2.8 µM

Kd [34, 48]: ≥ 20 µM
Kd [12, 48]: ≥ 20 µM
Kd [13, 48]: ≥ 20 µM
Kd [14, 48]: 0.321 µM
Kd [38]: ≥ 20 µM
Kd [19, 48]: 5.95 µM
Kd [20, 48]: ≥ 20 µM
Kd [25, 48]: ≥ 20 µM
Kd [39]: ≥ 5 µM
Kd [28, 48]: ≥ 20 µM
Kd [40]: ≥ 20 µM
Kd [31, 48]: ≥ 20 µM
Kd [32, 48]: ≥ 20 µM
Sequence: GRGQILLGK

Kd ([2]; source organism: Aquifex aeolicus VF5): 0.173 µM
Sequence: CRRLNTKYL

Sequence: AEFVFSCGI
Kd [8, 49]: ≥ 5 µM
Kd [10, 49]: ≥ 5 µM
Kd [41]: ≥ 5 µM
Kd [42]: 0.0084 µM
Kd [11, 49]: ≥ 5 µM
